Columns and labels:
Test in all cases: cell-based or functional assay
[1] = target: in-frame fusion between the extracellular domain of 2KIRDL3 (KIR2DL3) and the cytoplasmic ITIM motif of NKIR (pCXND3KIR58NKIR313), expressed in Jurkat cells (human) (UniProt P43628)
[2] = target: CD8-NKIR fusion protein (extracellular domain of CD8 alpha chain fused to the cytoplasmic ITIM motif of NKIR; pCXND3CD8NKIRfull), expressed in F11 Jurkat reporter cells (human) (UniProt P01732)
[3] = target: CD8-KIR fusion protein (extracellular domain of CD8 alpha chain fused to the cytoplasmic ITIM motif of KIR; pCXND3CD8KIRfull), expressed in F11 Jurkat reporter cells (human) (UniProt P01732)

Sequence of UniProt P43628 (P43628 other isoform, or with tags, fused parts or gaps limits assumed): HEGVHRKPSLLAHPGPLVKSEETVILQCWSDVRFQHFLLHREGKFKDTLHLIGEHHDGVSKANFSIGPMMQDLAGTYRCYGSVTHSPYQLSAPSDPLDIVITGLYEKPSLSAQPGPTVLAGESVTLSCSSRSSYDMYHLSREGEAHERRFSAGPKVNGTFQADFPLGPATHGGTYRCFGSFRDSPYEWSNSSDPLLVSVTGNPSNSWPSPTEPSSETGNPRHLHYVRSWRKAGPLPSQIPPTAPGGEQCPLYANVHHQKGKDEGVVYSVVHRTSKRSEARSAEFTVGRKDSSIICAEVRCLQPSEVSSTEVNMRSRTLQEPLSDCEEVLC

inhibition of luciferase activity (NFAT-luciferase reporter, anti-CD3 stimulated chimeraA10ZEOR12 cells, GL183 1 µg/ml then rat anti-mouse IgG cross-linking) [1] [%]	degree of reduction of luciferase reporter activity (NFAT-luciferase, 10-hour ConA stimulation, LT8 1.5 µg/ml; clone NKIR#16) [2] [%]	degree of reduction of luciferase reporter activity (NFAT-luciferase, 10-hour ConA stimulation, LT8 1.5 µg/ml; clone NKIR#19) [2] [%]	degree of reduction of luciferase reporter activity (NFAT-luciferase, 10-hour ConA stimulation, LT8 1.5 µg/ml) [3] [%]	Substance
33.3				GL183 monoclonal antibody (Beckman Coulter)
	21.2	30.2	16.6	anti-CD8 antibody LT8 (Serotec, MCA1226XZ)
